The supplement of paper PMC10567573

B1: KCNAB2 (parent)
chain: SSIIHEIDSILGNKPYSKKDYRS

Variants of: B1
Experiment: protein stability index of a GFP-peptide fusion (GPS, HEK-293T) (PSI 1-6); higher = more stable
Conditions: c terminus: native
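Further: lentivirally expressed fusions sorted by FACS into six bins by GFP to DsRed ratio, PSI derived from sequencing read proportions per bin multiplied by bin number.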

Protein stability index of substitutions, site by site:
K19: Y 2.45; T 4.16; I 3.3; Q 3.87; S 3.92; G 3.84; P 4.09; M 3.75; R 2.89; L 3.58; F 2.66; A 3.55; V 3.82; C 3.2; H 3.9; W 2.8; D 4.08; E 4.45; N 4.06
I10: D 4.05; C 3.79; G 4.32; L 3.12; A 4.13; N 4.38; H 4.15; S 3.68; F 2.32; W 1.96; Q 4.47; K 4.87; V 3.67; E 3.45; T 3.89; P 4.38; R 4.3; Y 3; M 3.32
D8: Q 3.06; T 2.25; A 2.06; S 2.45; N 2.69; R 2.84; H 2.06; C 1.59; G 2.41; K 2.07; Y 2.14; P 2.77; E 2.16; V 2.57
P15: R 2.98; S 3.42; M 3.28; H 2.63; Y 2.63; F 2.32; N 3.39; Q 2.8; G 3.36; T 3.33; L 2.84; K 3.36; E 3.18; V 2.71; A 3.54; D 3.27; W 2.44; C 3.14; I 3.18
I7: E 4.51; C 4.15; L 2.86; S 4.38; A 4.65; P 4.47; F 2.71; H 3.97; Q 4.42; M 2.75; N 4.63; K 3.45; T 4.7; R 3.86; Y 4.53; G 4.45; D 4.4
L11: Q 4.91; R 4.13; C 3.86; E 4.69; F 3.07; S 4.36; M 4.04; W 2.63; H 4.46; N 4; A 3.9; K 4.03; G 4.19; V 3.69; Y 3.4; P 4.19; D 4.72; I 3.42; T 4.27
K18: A 2.33; R 2.94; S 2.69; P 2.03; D 2.7; V 2.59; L 2.12; Y 2.24; N 3.1; G 2.61; M 1.27; I 2.11; Q 2.76; E 3.16; W 3.39; T 2.56; F 2.32; H 2.48; C 2.08
N13: L 2.47; C 2.25; G 2.61; S 2.59; W 2.38; I 2.51; V 2.59; Q 2.63; Y 1.79; M 2.56; A 2.14; F 2.68; H 3; R 3.1; P 2.54; T 2.97; E 2.82
S17: C 3.79; A 3.74; G 3.15; T 2.7; E 3.77; N 2.99; M 3.2; I 3.54; H 2.95; D 3.22; Q 3.76; K 3.43; R 3.23; Y 2.8; F 3.2; W 2.29
